Measurements reported in patent publication US20210087296A1 (published 2021).
Values belong to the binder of their own block, whether it stands above or below them.

Assays:
[1] = biological target: T1, MMP-14 catalytic domain mutant F204A (human, UniProt P50281 114-287, limits assumed); test: competitive ELISA, mutant in solution against immobilised wild-type MMP-14
T1 construct: Position as printed
Procedure: (§1) Fab ELISA. Purified Fab was serially diluted in MMP-14-coated wells followed by incubation at ambient temperature for 1 hr. Bound Fabs were detected using the anti-Fab-HRP conjugate. The half-maximal effective concentration (EC₅₀) was calculated from a four-parametric logistic curve-fitting analysis.

[2] = biological target: T2, MMP-14 catalytic domain mutant F198A (human, UniProt P50281 114-287, limits assumed); test: as above
T2 construct: Position as printed
Procedure: as §1

[3] = biological target: T3, MMP-14 catalytic domain mutant T190A (human, UniProt P50281 114-287, limits assumed); test: as above
T3 construct: Position as printed
Procedure: as §1

[4] = biological target: T4, MMP-14 catalytic domain mutant Y203A (human, UniProt P50281 114-287, limits assumed); test: as above
T4 construct: Position as printed
Procedure: as §1

[5] = biological target: T5, MMP-14 catalytic domain mutant N231A (human, UniProt P50281 114-287, limits assumed); test: as above
T5 construct: Position as printed
Procedure: as §1

[6] = biological target: T6, matrix metalloproteinase-14 catalytic domain (cdMMP-14) (human, UniProt P50281 114-287, limits assumed, biotinylated with EZ-Link Sulfo-NHS-LC-Biotin for ELISA; amine-coupled to CM5 chip for SPR); test: ELISA, purified Fab titrated on immobilised biotin-cdMMP-14, anti-Fab-HRP
T6 construct: also called catalytic domain of MMP-14; wild-type MMP-14
Procedure: After labeling purified cdMMP-14 using EZ-Link Sulfo-NHS-LC biotinylation kit (Thermo Fisher), biotin-cdMMP-14 was incubated in a streptavidin coated ELISA plate (Thermo Scientific) blocked with biotin-BSA. After washing, 50 μL of 2 M Fabs were then added to the first well and serially diluted to ˜1 nM and incubated for 30 minutes at 4° C. After washing, the ELISA signals were developed by anti-Fab-HRP (Sigma) and TMB (Thermo Scientific). The color development reaction was stopped by addition of H₂SO₄, and the absorptions at 450 nm were measured.

- binding result [1]: binds
- binding result [2]: binds
- binding result [3]: binds
- binding result [4]: binds
- binding result [5]: binds
B1: Fab 3A2 (Fab, V domains shown)
VH: EVQLVESGGGLVQPGGSLRLSCAASGFNLSSSSMHWVRQAPGKGLEWVASIYPSYSYTYYADSVKGRFTISADTSKNTAYLQMNSLRAEDTAVYYCARVKLQKDKSHQWIRNLVATPYGRYVMDYWGQGTLVTVSS
VL: DIQMTQSPSSLSASVGDRVTITCRASQSVSSAVAWYQQKPGKAPKLLIYSASSLYSGVPSRFSGSRSGTDFTLTISSLQPEDFATYYCQQYGYPITFGQGTKVEIKR
notes: Synthetic human Fab from E. coli periplasm; also called R3C9; not shown: His tag at C-terminus of heavy chain

- EC50 [6]: 1.2 nM
B2: Fab R2C14 (Fab, V domains shown)
VH: EVQLVESGGGLVQPGGSLRLSCAASGFNIYSSSIHWVRQAPGKGLEWVASIYSYSGYTYYADSVKGRFTISADTSKNTAYLQMNSLRAEDTAVYYCARVSNRYNRSSASIAGLQLFRPYGMDYWGQGTLVTVSS
VL: DIQMTQSPSSLSASVGDRVTITCRASQSVSSAVAWYQQKPGKAPKLLIYSASSLYSGVPSRFSGSRSGTDFTLTISSLQPEDFATYYCQQSSYSLITFGQGTKVEIKR
notes: Fab
